Data as given in US20110123543A1.

Tests used:
[1] = target: recombinant mouse TNFα (mouse) (UniProt P06804); test: cell-based or functional assay
[2] = target: recombinant human TNFα (rhTNF, Dainippon, Osaka, Japan) (human) (UniProt P01375); test: Scatchard analysis; direct binding of 125I-labelled antibody to rhTNFα immobilized in a 96-well plate
UniProt P01375, sequence (P01375 77-233 limits assumed): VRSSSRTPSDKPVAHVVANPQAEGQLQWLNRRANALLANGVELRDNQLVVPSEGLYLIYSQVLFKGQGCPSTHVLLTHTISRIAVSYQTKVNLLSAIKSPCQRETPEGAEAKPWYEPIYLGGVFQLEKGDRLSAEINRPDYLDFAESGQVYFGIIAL

UniProt P06804, sequence (P06804 80-235 limits assumed): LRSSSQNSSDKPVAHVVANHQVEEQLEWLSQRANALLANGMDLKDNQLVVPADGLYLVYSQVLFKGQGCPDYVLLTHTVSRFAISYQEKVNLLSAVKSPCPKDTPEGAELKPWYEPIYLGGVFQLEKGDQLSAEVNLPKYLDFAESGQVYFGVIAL

| Substance | neutralizing titre: concentration required to cause 50% inhibition of killing of WEHI 164 cells by trimeric recombinant murine TNFα (60 pg/ml mouse TNFα) [1] [ng/mL] | Ka [2] [M⁻¹] |
| --- | --- | --- |
| TN3-19.12, neutralizing hamster IgG1 anti-TNFα/β monoclonal antibody | 62 |  |
| chimeric A2 (cA2), chimeric monoclonal anti-TNF antibody |  | 1.8e+09 |
| TNF receptor/IgG fusion protein p55-sf2 (from UniProt P19438 30-211; P01857 1-330) (Fc fusion) | 0.6 |  |
